From IntAct's records for PubMed 32296183

B1: Transmembrane protein 43 (Homo sapiens), Q9BTV4 (parent)
chain: MAANYSSTSTRREHVKVKTSSQPGFLERLSETSGGMFVGLMAFLLSFYLIFTNEGRALKTATSLAEGLSLVVSPDSIHSVAPENEGRLVHIIGALRTSKLLSDPNYGVHLPAVKLRRHVEMYQWVETEESREYTEDGQVKKETRYSYNTEWRSEIINSKNFDREIGHKNPSAMAVESFMATAPFVQIGRFFLSSGLIDKVDNFKSLSLSKLEDPHVDIIRRGDFFYHSENPKYPEVGDLRVSFSYAGLSGDDPDLGPAHVVTVIARQRGDQLVPFSTKSGDTLLLLHHGDFSAEEVFHRELRSNSMKTWGLRAAGWMAMFMGLNLMTRILYTLVDWFPVFRDLVNIGLKAFAFCVATSLTLLTVAAGWLFYRPLWALLIAGLALVPILVARTRVPAKKLE
partner: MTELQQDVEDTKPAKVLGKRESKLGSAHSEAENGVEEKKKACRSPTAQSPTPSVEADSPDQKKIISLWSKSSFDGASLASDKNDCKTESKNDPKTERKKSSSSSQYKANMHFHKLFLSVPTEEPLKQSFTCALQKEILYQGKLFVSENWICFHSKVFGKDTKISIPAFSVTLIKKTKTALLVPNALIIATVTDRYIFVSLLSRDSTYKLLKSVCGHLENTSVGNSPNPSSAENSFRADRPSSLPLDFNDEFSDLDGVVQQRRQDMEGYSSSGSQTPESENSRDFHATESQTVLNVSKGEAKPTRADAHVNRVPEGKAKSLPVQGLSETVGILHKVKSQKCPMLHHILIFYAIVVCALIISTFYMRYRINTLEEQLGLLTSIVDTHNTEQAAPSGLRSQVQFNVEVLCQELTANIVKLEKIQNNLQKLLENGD
B2: Very-long-chain enoyl-CoA reductase (Homo sapiens), Q9NZ01 (parent)
chain: MKHYEVEILDAKTREKLCFLDKVEPHATIAEIKNLFTKTHPQWYPARQSLRLDPKGKSLKDEDVLQKLPVGTTATLYFRDLGAQISWVTVFLTEYAGPLFIYLLFYFRVPFIYGHKYDFTSSRHTVVHLACICHSFHYIKRLLETLFVHRFSHGTMPLRNIFKNCTYYWGFAAWMAYYINHPLYTPPTYGAQQVKLALAIFVICQLGNFSIHMALRDLRPAGSKTRKIPYPTKNPFTWLFLLVSCPNYTYEVGSWIGFAIMTQCLPVALFSLVGFTQMTIWAKGKHRSYLKEFRDYPPLRMPIIPFLL
partner: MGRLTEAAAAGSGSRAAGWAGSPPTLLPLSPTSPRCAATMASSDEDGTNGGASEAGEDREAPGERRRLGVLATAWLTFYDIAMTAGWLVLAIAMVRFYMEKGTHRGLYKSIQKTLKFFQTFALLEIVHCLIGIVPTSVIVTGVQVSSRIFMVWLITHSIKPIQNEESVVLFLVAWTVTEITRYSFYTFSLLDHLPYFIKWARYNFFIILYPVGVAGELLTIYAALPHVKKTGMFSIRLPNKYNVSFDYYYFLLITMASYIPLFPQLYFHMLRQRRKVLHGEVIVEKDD
B3: Catenin alpha-3 (Homo sapiens), Q9UI47-2 (parent)
chain: MSAETPITLNIDPQDLQVQTFTVEKLLEPLIIQVTTLVNCPQNPSSRKKGRSKRASVLLASVEEATWNLLDKGEKIAQEATVLKDELTASLEEVRKESEALKVSAERFTDDPCFLPKREAVVQAARALLAAVTRLLILADMIDVMCLLQHVSAFQRTFESLKNVANKSDLQKTYQKLGKELENLDYLAFKRQQDLKSPNQRDEIAGARASLKENSPLLHSICSACLEHSDVASLKASKDTVCEEIQNALNVISNASQGIQNMTTPPEPQAATLGSALDELENLIVLNPLTVTEEEIRPSLEKRLEAIISGAALLADSSCTRDLHRERIIAECNAIRQALQDLLSEYMNNAGKKERSNTLNIALDNMCKKTRDLRRQLRKAIIDHVSDSFLDTTVPLLVLIEAAKNGREKEIKEYAAIFHEHTSRLVEVANLACSMSTNEDGIKIVKIAANHLETLCPQIINAALALAARPKSQAVKNTMEMYKRTWENHIHVLTEAVDDITSIDDFLAVSGMFLFF
partner: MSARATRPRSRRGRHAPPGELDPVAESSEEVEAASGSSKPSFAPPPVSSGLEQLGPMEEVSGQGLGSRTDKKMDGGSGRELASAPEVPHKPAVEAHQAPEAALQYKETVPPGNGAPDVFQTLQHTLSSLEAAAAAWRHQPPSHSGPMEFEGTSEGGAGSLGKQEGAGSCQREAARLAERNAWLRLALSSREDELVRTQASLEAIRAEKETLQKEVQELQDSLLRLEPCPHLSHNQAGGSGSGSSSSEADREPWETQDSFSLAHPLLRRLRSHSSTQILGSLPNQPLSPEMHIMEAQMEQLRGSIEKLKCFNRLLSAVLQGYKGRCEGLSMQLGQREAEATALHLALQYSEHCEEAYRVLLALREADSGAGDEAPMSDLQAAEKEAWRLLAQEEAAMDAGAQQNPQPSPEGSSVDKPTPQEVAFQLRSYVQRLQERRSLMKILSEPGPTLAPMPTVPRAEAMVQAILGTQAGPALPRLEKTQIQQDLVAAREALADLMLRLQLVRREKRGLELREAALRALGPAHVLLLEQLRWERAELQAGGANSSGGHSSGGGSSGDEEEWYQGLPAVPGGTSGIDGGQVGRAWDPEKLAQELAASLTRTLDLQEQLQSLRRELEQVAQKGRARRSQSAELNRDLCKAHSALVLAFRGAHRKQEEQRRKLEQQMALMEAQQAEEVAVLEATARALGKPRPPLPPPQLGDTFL
B4: Catenin alpha-3 (Homo sapiens), Q9UI47-2 (parent)
chain: B3 chain
partner: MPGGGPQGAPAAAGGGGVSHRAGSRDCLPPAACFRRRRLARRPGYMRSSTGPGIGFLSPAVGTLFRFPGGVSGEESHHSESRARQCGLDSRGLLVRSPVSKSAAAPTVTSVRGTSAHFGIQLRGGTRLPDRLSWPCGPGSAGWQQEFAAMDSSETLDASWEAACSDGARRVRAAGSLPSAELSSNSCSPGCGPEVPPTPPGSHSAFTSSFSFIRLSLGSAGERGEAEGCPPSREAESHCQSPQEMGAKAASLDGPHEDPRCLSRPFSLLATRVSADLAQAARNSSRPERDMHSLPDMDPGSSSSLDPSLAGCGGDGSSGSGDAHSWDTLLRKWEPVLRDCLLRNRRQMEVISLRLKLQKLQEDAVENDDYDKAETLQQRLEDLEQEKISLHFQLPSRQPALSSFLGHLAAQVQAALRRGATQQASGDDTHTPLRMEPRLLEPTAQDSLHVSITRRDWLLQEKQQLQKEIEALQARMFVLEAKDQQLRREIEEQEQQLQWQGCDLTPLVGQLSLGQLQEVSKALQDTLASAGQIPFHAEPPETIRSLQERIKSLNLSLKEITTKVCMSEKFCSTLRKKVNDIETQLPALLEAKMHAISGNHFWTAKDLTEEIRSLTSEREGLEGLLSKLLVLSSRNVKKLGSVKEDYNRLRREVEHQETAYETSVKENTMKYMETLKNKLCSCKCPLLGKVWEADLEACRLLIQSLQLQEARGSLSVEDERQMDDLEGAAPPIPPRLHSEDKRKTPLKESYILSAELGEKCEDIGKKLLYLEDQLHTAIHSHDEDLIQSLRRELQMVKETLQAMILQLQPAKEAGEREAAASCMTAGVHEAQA
B5: Golgi SNAP receptor complex member 2 (Homo sapiens), O14653 (parent)
chain: MDPLFQQTHKQVHEIQSCMGRLETADKQSVHIVENEIQASIDQIFSRLERLEILSSKEPPNKRQNARLRVDQLKYDVQHLQTALRNFQHRRHAREQQERQREELLSRTFTTNDSDTTIPMDESLQFNSSLQKVHNGMDDLILDGHNILDGLRTQRLTLKGTQKKILDIANMLGLSNTVMRLIEKRAFQDKYFMIGGMLLTCVVMFLVVQYLT
partner: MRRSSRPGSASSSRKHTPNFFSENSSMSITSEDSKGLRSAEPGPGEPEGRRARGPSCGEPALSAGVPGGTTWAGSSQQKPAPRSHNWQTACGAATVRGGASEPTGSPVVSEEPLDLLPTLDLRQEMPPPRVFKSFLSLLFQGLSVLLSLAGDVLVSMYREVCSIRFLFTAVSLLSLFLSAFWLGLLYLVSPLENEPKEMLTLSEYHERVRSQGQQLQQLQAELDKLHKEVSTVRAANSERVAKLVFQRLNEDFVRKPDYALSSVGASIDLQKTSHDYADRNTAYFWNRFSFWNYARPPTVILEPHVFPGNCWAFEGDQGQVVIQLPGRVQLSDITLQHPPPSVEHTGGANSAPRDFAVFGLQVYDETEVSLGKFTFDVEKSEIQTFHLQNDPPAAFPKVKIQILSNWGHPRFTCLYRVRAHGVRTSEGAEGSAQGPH
B6: Catenin alpha-3 (Homo sapiens), Q9UI47-2 (parent)
chain: B3 chain
partner: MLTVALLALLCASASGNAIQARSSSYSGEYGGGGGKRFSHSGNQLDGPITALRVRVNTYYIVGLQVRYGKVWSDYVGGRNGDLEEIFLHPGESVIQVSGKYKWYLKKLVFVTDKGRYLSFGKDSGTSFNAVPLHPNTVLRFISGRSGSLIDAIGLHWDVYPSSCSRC
B7: Catenin alpha-3 (Homo sapiens), Q9UI47-2 (parent)
chain: B3 chain
partner: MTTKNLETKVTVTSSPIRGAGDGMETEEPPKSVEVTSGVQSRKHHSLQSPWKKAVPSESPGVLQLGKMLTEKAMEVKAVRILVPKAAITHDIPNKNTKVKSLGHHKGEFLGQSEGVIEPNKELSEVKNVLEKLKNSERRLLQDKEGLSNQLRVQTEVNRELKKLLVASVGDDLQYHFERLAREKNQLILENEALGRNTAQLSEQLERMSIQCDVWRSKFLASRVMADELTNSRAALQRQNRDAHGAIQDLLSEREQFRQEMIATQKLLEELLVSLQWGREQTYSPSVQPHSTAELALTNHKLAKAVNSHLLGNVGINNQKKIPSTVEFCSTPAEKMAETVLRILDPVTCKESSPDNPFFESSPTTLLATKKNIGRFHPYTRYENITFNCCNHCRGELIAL
B8: Catenin alpha-3 (Homo sapiens), Q9UI47-2 (parent)
chain: B3 chain
partner: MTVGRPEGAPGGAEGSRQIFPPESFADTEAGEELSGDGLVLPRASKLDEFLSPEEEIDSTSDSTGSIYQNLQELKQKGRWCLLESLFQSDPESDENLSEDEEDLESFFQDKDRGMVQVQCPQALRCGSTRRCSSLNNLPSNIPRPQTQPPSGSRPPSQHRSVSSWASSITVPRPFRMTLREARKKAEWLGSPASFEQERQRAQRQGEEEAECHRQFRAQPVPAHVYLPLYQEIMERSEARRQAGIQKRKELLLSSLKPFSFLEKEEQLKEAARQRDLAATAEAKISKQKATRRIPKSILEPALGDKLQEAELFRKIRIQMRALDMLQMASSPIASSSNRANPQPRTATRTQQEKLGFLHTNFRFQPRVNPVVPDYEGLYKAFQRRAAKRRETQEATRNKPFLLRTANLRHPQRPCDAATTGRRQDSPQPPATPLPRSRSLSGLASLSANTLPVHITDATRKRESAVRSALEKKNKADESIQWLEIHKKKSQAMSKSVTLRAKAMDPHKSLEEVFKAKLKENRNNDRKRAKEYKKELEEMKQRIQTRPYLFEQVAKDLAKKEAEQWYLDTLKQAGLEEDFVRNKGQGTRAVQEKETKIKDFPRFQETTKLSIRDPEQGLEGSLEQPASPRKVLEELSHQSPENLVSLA
B9: Catenin alpha-3 (Homo sapiens), Q9UI47-2 (parent)
chain: B3 chain
partner: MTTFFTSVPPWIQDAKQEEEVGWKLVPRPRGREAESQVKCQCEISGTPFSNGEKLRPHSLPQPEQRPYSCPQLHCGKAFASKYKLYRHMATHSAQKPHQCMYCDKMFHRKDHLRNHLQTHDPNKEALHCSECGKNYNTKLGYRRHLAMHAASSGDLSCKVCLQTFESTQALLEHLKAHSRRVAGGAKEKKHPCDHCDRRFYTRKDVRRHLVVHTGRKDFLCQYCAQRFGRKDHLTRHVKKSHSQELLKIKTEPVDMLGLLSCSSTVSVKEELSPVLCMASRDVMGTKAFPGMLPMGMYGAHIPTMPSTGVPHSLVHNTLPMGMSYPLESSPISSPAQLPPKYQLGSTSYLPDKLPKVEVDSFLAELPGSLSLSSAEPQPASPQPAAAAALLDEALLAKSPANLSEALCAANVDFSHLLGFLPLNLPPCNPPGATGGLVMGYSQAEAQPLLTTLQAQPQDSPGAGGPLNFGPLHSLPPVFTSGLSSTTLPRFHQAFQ

Variants of: B1
Conditions: with grm2b_human GRAMD2B

| Variant | effect of a mutation on the interaction |
| --- | --- |
| E142K | with no effect |
| Y371H | with no effect |

Variants of: B2
Conditions: with hacd1_human HACD1, B0YJ81

| Variant | effect of a mutation on the interaction |
| --- | --- |
| P182L | disrupting interaction strength |

Variants of: B3
Conditions: with usbp1_human USHBP1, Q8N6Y0

| Variant | effect of a mutation on the interaction |
| --- | --- |
| V94D | disrupting interaction strength |

Variants of: B4
Conditions: with DISC1, Q9NRI5-2

| Variant | effect of a mutation on the interaction |
| --- | --- |
| V94D | disrupting interaction strength |

Variants of: B5
Conditions: with spag4_human SPAG4, Q9NPE6

| Variant | effect of a mutation on the interaction |
| --- | --- |
| G144W | with no effect |

Variants of: B6
Conditions: with zg16_human ZG16, O60844

| Variant | effect of a mutation on the interaction |
| --- | --- |
| V94D | disrupting interaction strength |

Variants of: B7
Conditions: with go45_human BLZF1, Q9H2G9

| Variant | effect of a mutation on the interaction |
| --- | --- |
| V94D | disrupting interaction strength |

Variants of: B8
Conditions: with FAM161B

| Variant | effect of a mutation on the interaction |
| --- | --- |
| V94D | with no effect |

Variants of: B9
Conditions: with plal2_human PLAGL2, Q9UPG8

| Variant | effect of a mutation on the interaction |
| --- | --- |
| V94D | disrupting interaction strength |
